The values below come from paper PMC12501149 (2025).

Where no end group is shown, it is not given here. Where only a bound is given, the exact number is not on record here.

For assay [1], the target named is TcdB 1285-1804 with C-terminal Avitag (RBD toxin fragment), biotinylated (Clostridioides difficile, UniProt P18177 1285-1804). The assay is described as follows: SPR. A general note: SPR reads the build-up and loss of mass on a sensor chip optically.
In assay [2] the target is Clostridioides difficile toxin B (TcdB), full-length TcdB1 (VP10463) (Clostridioides difficile, UniProt P18177 1-2366). The assay is described as follows: SPR.
Sequence of Clostridioides difficile toxin B (TcdB), full-length TcdB1 (VP10463) (P18177 whole entry): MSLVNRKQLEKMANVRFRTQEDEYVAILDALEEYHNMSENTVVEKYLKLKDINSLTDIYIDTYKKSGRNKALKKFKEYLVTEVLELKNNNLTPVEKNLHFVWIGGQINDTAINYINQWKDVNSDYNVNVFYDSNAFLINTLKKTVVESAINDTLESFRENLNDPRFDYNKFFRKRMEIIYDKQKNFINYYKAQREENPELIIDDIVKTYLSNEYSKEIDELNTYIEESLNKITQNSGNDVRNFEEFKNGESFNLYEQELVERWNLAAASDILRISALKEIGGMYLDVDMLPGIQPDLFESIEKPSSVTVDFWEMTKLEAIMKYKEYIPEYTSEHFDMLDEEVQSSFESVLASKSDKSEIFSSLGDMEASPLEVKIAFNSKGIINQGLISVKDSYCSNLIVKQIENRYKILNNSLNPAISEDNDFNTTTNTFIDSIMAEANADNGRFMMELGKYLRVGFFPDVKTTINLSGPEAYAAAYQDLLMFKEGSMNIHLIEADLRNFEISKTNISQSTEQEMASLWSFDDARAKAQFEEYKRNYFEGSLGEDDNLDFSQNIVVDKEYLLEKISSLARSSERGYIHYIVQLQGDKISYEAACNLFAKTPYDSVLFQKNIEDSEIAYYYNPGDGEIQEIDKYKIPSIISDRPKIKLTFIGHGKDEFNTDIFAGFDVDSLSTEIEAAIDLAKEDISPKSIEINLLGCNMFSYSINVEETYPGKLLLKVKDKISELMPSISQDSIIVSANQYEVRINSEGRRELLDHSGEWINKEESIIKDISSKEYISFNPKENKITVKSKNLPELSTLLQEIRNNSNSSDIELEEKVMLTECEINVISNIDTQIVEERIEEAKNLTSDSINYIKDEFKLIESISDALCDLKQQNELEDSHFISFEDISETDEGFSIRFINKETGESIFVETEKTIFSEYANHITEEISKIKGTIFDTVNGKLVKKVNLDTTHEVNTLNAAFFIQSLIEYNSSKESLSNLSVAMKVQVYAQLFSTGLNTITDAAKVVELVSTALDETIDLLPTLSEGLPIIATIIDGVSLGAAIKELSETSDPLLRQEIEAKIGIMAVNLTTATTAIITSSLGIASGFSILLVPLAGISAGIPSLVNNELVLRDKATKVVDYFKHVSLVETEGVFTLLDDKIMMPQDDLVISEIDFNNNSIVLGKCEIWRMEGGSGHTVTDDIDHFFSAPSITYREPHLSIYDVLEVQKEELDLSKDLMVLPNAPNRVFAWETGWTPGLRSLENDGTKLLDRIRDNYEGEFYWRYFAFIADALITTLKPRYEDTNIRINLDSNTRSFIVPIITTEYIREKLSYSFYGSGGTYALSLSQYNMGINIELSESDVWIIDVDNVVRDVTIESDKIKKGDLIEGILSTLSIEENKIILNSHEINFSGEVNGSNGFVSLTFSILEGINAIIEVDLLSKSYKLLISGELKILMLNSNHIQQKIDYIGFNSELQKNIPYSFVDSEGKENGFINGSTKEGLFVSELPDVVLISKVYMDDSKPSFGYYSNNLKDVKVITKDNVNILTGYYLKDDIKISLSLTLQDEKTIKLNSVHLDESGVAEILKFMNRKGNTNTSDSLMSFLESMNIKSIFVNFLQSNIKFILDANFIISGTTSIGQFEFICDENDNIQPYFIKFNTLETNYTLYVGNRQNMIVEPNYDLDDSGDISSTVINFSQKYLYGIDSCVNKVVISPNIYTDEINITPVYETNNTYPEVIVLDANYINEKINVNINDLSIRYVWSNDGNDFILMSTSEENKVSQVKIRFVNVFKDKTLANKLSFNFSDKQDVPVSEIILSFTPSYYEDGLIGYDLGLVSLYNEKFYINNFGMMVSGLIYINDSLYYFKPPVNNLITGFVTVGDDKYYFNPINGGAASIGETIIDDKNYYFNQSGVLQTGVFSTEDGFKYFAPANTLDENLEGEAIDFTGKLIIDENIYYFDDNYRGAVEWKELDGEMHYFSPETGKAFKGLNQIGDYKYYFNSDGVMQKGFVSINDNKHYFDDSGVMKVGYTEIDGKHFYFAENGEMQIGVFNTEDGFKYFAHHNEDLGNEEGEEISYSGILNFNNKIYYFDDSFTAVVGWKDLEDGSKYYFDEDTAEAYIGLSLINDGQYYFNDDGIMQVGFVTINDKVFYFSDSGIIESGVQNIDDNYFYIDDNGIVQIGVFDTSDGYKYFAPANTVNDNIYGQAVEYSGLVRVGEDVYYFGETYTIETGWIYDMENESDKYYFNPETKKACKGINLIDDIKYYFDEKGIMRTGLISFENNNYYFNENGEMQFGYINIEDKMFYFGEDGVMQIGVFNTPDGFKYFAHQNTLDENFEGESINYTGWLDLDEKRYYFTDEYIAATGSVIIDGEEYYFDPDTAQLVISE

Sequence of TcdB 1285-1804 with C-terminal Avitag (RBD toxin fragment), biotinylated (P18177 1285-1804): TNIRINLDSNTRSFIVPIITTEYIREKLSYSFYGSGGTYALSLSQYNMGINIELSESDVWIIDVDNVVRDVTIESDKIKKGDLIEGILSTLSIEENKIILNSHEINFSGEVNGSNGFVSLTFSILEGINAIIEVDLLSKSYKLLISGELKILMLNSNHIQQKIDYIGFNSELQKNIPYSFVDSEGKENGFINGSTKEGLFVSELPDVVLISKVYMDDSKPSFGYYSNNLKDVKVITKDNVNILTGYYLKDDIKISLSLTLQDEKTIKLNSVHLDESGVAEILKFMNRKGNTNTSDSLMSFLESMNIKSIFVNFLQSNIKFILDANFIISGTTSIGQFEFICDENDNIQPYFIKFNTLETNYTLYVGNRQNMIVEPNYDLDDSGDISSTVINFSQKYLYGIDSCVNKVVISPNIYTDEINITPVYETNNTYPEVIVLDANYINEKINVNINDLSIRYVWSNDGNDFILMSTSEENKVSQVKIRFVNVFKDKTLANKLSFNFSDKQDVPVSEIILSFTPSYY

B1: fzd48 (designed binder)
chain: KEELEKMIEELKKLIENGDKENFIKLFDEAFKKAKESRDPRTIASVWTLVLEFKNKN
Consider B1, for which the equilibrium dissociation constant (Kd) (as a rule, the concentration at which binding is half-saturated) in assay [1] was below 0.01 nM.

B2: ss2cspg18 (designed binder)
chain: MDEKVEKLKECLEKLKEKGDIKGVIDTERAIRICERSRHKEFCEWAIEKCENRIKES
modifications: disulfide (positions not given here)
Consider B2, for which the Kd in assay [2] is 0.87 nM.

B3: fzd13 (designed binder)
chain: AEKEVQELIDKALNTPDPKVASKYIISAVYVAAKARDPSLFQSALDTAKKL
Take B3: in assay [1], the equilibrium dissociation constant (Kd) was found to be 0.0056 nM.

B4: cspg4 (designed minibinder) (designed binder)
chain: ENKLARAVVTVNKSWLATQLFVRLYRLCKAGDPRCEEVAEKLRKVLELQGVPETDIELVVEVAKG
The molecule B4 showed an equilibrium dissociation constant (Kd) in assay [2] of 2 nM.
